Here are results for eight molecules from patent US20220119534A1 (DRAGONFLY THERAPEUTICS, published 2022).

Numbering of substitutions follows the chain as printed.

B1: AB0237-Dead-2D (other)
chain: QLQLQESGPGLVKPSETLSLTCTVSGFSLTNYGLHWIRQPPGKCLEWIGVIWSGGKTDYNPSLKSRVTISKDTSKNQFSLKLSSVQAADTAVYYCAKYDYDDSLDYWGQGTLVTVSSGGGGSGGGGSGGGGSGGGGSDIQMTQSPSSLSASVGDRVTITCHASQNINFWLSWYQQKPGKAPKLLIYEASNLHTGVPSRFSGSGSGTRFTLTISSLQPEDIATYYCQQSHSYPLTFGCGTKLEIKGSDKTHTCPPCPAPELLGGPSVFLFPPKPKDTLMISRTPEVTCVVVDVSHEDPEVKFNWYVDGVEVHNAKTKPREEQYNSTYRVVSVLTVLHQDWLNGKEYKCKVSNKALPAPIEKTISKAKGQPREPRVYTLPPCRDELTKNQVSLTCLVKGFYPSDIAVEWESNGQPENNYKTTPPVLVSDGSFTLYSKLTVDKSRWQQGNVFSCSVMHEALHNHYTQKSLSLSPG
heavy: EVQLVESGGGLVKPGGSLRLSCAASGFTFSSYSMNWVRQAPGKGLEWVSSISSSSSYIYYADSVKGRFTISRDNAKNSLYLQMNSLRAEDTAVYYCARGAPIGAAAGWFDPWGQGTLVTVSSASTKGPSVFPLAPSSKSTSGGTAALGCLVKDYFPEPVTVSWNSGALTSGVHTFPAVLQSSGLYSLSSVVTVPSSSLGTQTYICNVNHKPSNTKVDKKVEPKSCDKTHTCPPCPAPELLGGPSVFLFPPKPKDTLMISRTPEVTCVVVDVSHEDPEVKFNWYVDGVEVHNAKTKPREEQYNSTYRVVSVLTVLHQDWLNGKEYKCKVSNKALPAPIEKTISKAKGQPREPQVCTLPPSRDELTENQVSLTCLVKGFYPSDIAVEWESNGQPENNYKTTPPVLDSDGSFFLYSWLTVDKSRWQQGNVFSCSVMHEALHNHYTQKSLSLSPG
light: DIQMTQSPSTLSASVGDRVTITCRASNSISSWLAWYQQKPGKAPKLLIYEASSTKSGVPSRFSGSGSGTEFTLTISSLQPDDFATYYCQQYDDLPTFGGGTKVEIKRTVAAPSVFIFPPSDEQLKSGTASVVCLLNNFYPREAKVQWKVDNALQSGNSQESVTEQDSKDSTYSLSSTLTLSKADYEKHKVYACEVTHQGLSSPVTKSFNRGEC
notes: also called AB0237 NKG2D dead arm variant
B2: AB0300 (other, name in EU numbering)
chain: B1 chain with L260A, L261A, P355G
heavy: B1 heavy with L239A, L240A, P334G
light: DIQMTQSPSSVSASVGDRVTITCRASQGISSWLAWYQQKPGKAPKLLIYAASSLQSGVPSRFSGSGSGTDFTLTISSLQPEDFATYYCQQGVSFPRTFGGGTKVEIKRTVAAPSVFIFPPSDEQLKSGTASVVCLLNNFYPREAKVQWKVDNALQSGNSQESVTEQDSKDSTYSLSSTLTLSKADYEKHKVYACEVTHQGLSSPVTKSFNRGEC
notes: Positions are EU numbers, not positions counted on the entries; also called AB0237si
B3: hcFAE-A49.h6E7 (Duobody TriNKET) (bispecific antibody, V domains shown)
VH 1: EVQLVQSGAEVKKPGASVKVSCKASGYSFTDYYMHWVRQAPGQGLEWIGRINPYNGAAFYSQNFKDRVTLTVDTSTSTAYLELSSLRSEDTAVYYCAIERGADLEGYAMDYWGQGTLVTVSS
VL 1: DIQMTQSPSSLSASVGDRVTITCRASQSVSTSSYNYMHWYQQKPGKPPKLLIKYASNLESGVPSRFSGSGSGTDFTLTISSLQPEDFATYYCQHSWEIPLTFGQGTKVEIK
VH 2: EVQLVESGGGLVKPGGSLRLSCAASGFTFSSYSMNWVRQAPGKGLEWVSSISSSSSYIYYADSVKGRFTISRDNAKNSLYLQMNSLRAEDTAVYYCARGAPMGAAAGWFDPWGQGTLVTVSS
VL 2: DIQMTQSPSSVSASVGDRVTITCRASQGISSWLAWYQQKPGKAPKLLIYAASSLQSGVPSRFSGSGSGTDFTLTISSLQPEDFATYYCQQGVSFPRTFGGGTKVEIK
notes: also called Duobody TriNKET based on h6E7 antibody from Genentech
B4: hcFAE-A49.CLL1-Merus (Duobody TriNKET) (bispecific antibody, V domains shown)
VH 1: EVQLVQSGAEVKKPGASVKVSCKASGYTFTSYYMHWVRQAPGQGLEWMGIINPSGGSTSYAQKFQGRVTMTRDTSTSTVYMELSSLRSEDTAVYYCARGNYGDEFDYWGQGTLVTVSS
VL 1: not shown
VH 2: B3 VH 2
VL 2: B3 VL 2
notes: Duobody format; also called Duobody TriNKET based on CLL1 antibody from Merus
B5: AB0188 (other)
chain: DIKMTQSPSSLSASVGDRVTITCKASQDIYNYLSWFQQKPGKAPKPLIYRANILVSGVPSRFSGSGSGQDYTLTISSLQPEDIATYYCLQFDAFPFTFGCGTKLEIKGGGGSGGGGSGGGGSGGGGSEVQLVESGGGVVQPGGSLRLSCAASGFTFNSFGMHWVRQAPGKCLEWVAFISSGSTSIYYANTVKGRFTISRDNSKNTLYLQMNSLRAEDTAVYYCARDGYPTGGAMDYWGQGTSVTVSSGSDKTHTCPPCPAPELLGGPSVFLFPPKPKDTLMISRTPEVTCVVVDVSHEDPEVKFNWYVDGVEVHNAKTKPREEQYNSTYRVVSVLTVLHQDWLNGKEYKCKVSNKALPAPIEKTISKAKGQPREPRVYTLPPCRDELTKNQVSLTCLVKGFYPSDIAVEWESNGQPENNYKTTPPVLVSDGSFTLYSKLTVDKSRWQQGNVFSCSVMHEALHNHYTQKSLSLSPG
heavy: B1 heavy
light: B2 light
notes: As AB0185
B6: F3'-1292 (other)
chain: B1 chain with A88N, A180I
heavy: B1 heavy
light: B2 light
notes: F3' TriNKET, scFv-Fc chain built from the general F3' description; semi-purified
B7: F3'-1297 (other)
chain: B1 chain with A88N
heavy: B1 heavy
light: B2 light
notes: As F3'-1292
B8: F3'-1296 (other)
chain: B1 chain with A88N, K97R, A180I
heavy: B1 heavy
light: B2 light
notes: As F3'-1292

The first assay deals with T1, human CLEC12A on cells (HL60, PL21, Ba/F3-hCLEC12A) (human, UniProt Q5QGZ9 1-265).
T1 construct: Endogenous on the AML lines HL60 and PL21; brought into mouse Ba/F3 cells by retroviral transduction; The cell line stands under assay; also called CLL-1
T1 sequence: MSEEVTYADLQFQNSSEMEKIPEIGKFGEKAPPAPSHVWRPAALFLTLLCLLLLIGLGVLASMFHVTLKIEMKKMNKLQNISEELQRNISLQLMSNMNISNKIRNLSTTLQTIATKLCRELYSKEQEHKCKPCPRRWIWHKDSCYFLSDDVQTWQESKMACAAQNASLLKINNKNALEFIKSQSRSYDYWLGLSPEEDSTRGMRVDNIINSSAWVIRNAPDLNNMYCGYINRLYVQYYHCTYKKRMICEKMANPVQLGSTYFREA
Put plainly: flow cytometry, HL60 cells. (A flow cytometer gives signals particle by particle.)
The term EC50 denotes the concentration giving half of the maximal effect. High values mean weaker potency, low ones greater potency. With B1, the EC50 was determined as 1.19 nM and the “FOB (fold over background)” value is 59 fold.

As for B2, the response was half-maximal at 1.5 nM (EC50) and the “FOB (fold over background)” value amounted to 65 fold.

Take B3: the EC50 was 1.33 nM and the “FOB (fold over background)” value came out at 31 fold.

For the molecule B4, the EC50 was 2.79 nM and the “FOB (fold over background)” value came to 59 fold.

A further assay has as its target T2, recombinant human CLEC12A-His (human, UniProt Q5QGZ9 65-265).
T2 construct: also called hCLEC12A-His; hCLEC12A
T2 sequence: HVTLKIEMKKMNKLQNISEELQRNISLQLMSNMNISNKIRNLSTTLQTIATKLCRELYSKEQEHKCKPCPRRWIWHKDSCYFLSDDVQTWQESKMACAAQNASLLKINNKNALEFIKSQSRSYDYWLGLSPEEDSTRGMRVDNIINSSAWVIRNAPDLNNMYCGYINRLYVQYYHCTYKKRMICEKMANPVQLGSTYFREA
Put plainly: SPR screening, semi-purified.
What is called Kd is the equilibrium constant for the complex coming apart. The koff is the first-order rate constant of dissociation. What is called kon is a measure of how fast the partners come together. In the case of B5, the Kd came out at 1.58 nM, the koff worked out at 0.000901 s⁻¹ and the kon amounted to 569000 M⁻¹ s⁻¹.

Another assay concerns the target T1, human CLEC12A on cells (HL60, PL21, …). The assay is described as follows: flow cytometry, Ba/F3-hCLEC12A cells.
Turning to B1, a half-maximal effect (EC50) was put at 2.35 nM and the “FOB (fold over background)” value is 357 fold.

B2: the response was half-maximal at 2.92 nM (EC50) and the “FOB (fold over background)” value stood at 368 fold.

Consider B3, for which the EC50 turned out to be 2.87 nM and the “FOB (fold over background)” value turned out to be 318 fold.

As to B4, a half-maximal response (EC50) required 4.45 nM and the “FOB (fold over background)” value worked out at 369 fold.

For another assay, the target named is T2, recombinant human CLEC12A-His. Put plainly: SPR screening, semi-purified. The source holds these as a separate data set.
For the molecule B6, the Kd stood at 3.22 nM, the koff was determined as 0.0013 s⁻¹ and the kon is 402000 M⁻¹ s⁻¹.

B7: the Kd was 2.79 nM, the koff worked out at 0.00141 s⁻¹ and the kon is 504000 M⁻¹ s⁻¹.

Consider B8, for which the Kd amounted to 1.34 nM, the koff came out at 0.00117 s⁻¹ and the kon came out at 874000 M⁻¹ s⁻¹.

For a further assay, the target named is T1, human CLEC12A on cells (HL60, PL21, …). The assay is described as follows: flow cytometry, PL21 cells.
B1: the midpoint of the response, the EC50, lay at 0.63 nM and the “FOB (fold over background)” value stood at 14 fold.

On to B2, for which the EC50 was 1.58 nM and the “FOB (fold over background)” value was 18 fold.

Take B3: the EC50 amounted to 0.55 nM and the “FOB (fold over background)” value stood at 10 fold.

For B4, the EC50 was determined as 1.13 nM and the “FOB (fold over background)” value came out at 15 fold.
